Values belong to the molecule of their own block, whether it stands above or below them.
Legend:
[1] = system: monoclonal antibody MV-003; assay: In vitro inhibition assay (ELISA), MV-003 binding to original epitope; set-up: species or system BalbC mice; conditions: Table 2A; OD at 10 ug peptide compared to original peptide
Description: Different amounts of peptides (concentrations ranging from 10 μg to 0.08 μg; serial dilutions; for MV-002: concentrations ranging from 5 μg to 0.03 μg; serial dilutions), derived from Phage Display were incubated with the monoclonal antibody that was used for the screening procedure. Peptides diminishing subsequent binding of the antibody to the original epitope coated on ELISA plates were considered as inhibiting in this assay.
Legend to Table 2A: the inhibition capacity is coded by the following code: Weak inhibition means more peptide is required to lower AB binding than with the original epitope; strong inhibition means similar peptide amounts are required for mimotope and original epitope for lowering AB binding. Mimotopes are compared to the original peptide as standard. OD at 10 ug peptide used in the assay is used to calculate the competition capacity compared to original peptide.

[2] = system: monoclonal antibody MV-003; assay: In vitro binding assay (ELISA), BSA-coupled peptides, parental antibody MV-003; set-up: species or system BalbC mice; conditions: Table 1A; peptide-BSA on plate, compared to original epitope
Description: Peptides derived from Phage Display as well as variants thereof were coupled to BSA and bound to ELISA plates (1 μM; as indicated in the respective figures) and subsequently incubated with the monoclonal antibody that was used for the screening procedure to analyse binding capacity of identified peptides.
Legend to Table 1A: the binding capacity is coded by the following binding code: 1:X describes the dilution factor of the parental AB.

[3] = system: Aβ/truncated/modified forms; assay: In vivo characterisation of mimotopes: detection of Aβ/truncated/modified forms; set-up: species or system C57/B16 mice; key: +: All peptides listed in Table 5 mount specific immune reactions against full length and/or truncated and modified forms of Aβ or fragments thereof; conditions: Table 5, MV-003 derived mimotopes
Description: Inhibiting as well as non-inhibiting peptides were coupled to KLH and injected into mice (wildtype C57/B16 mice; subcutaneous injection into the flank) together with an appropriate adjuvant (aluminium hydroxide). Animals were vaccinated 3-6 times in biweekly intervals and sera were taken biweekly as well. Titers to injected peptides, as well as to an irrelevant peptide were determined with every serum. Furthermore, titers against the recombinant human Aβ protein, and against original peptides were determined respectively. In general sera were analysed by reaction against peptides coupled to Bovine Serum Albumin (BSA) and recombinant full length proteins which were immobilised on ELISA plates. Titers were determined using anti mouse IgG specific antibodies. For detailed results see FIGS. 15, 16 and 17 respectively and FIGS. 23, 24 and 25 respectively.
(§1) Female C57/b16 mice, 5-6 mice per group, were subcutaneously immunized with 30 μg peptide coupled to KLH. Control groups were administered original epitope-KLH conjugates respectively. As adjuvant alum was used (always 1 mg per mouse). […] The in vitro ELISA assay to determine the antibody titer was performed with sera of single mice after each vaccination in a two week interval (see FIGS. 15 and 16 respectively). The wells of the ELISA plate were coated with mimotope-BSA conjugate and an irrelevant peptide-BSA conjugate (negative control). The positive control was performed by reaction of the parental antibody with the respective mimotope-BSA conjugate. The detection was performed with anti-mouse IgG. Additionally, recombinant proteins were immobilised on ELISA plates and sera reacted accordingly. FIGS. 15 to 17 show representative examples for assays used to characterise mimotopes in vivo.
as §1, with “FIGS. 25” for “FIGS. 15”, “and 26” for “and 16”, “respectively). Titers were calculated as OD max/2 in all figures shown.” for “respectively).”, “FIGS. 23, 24 and 25” for “FIGS. 15 to 17”

[4] = target: monoclonal antibody MV-003; assay: inhibition ELISA, competitor coated original epitope p4373; code 1 = weaker than original epitope
[5] = target: DAEFRH-peptide-specific monoclonal antibody (Example 1); assay: inhibition ELISA, competitor plate-bound DAEFRH-C-BSA
[6] = target: DAEFRH-peptide-specific monoclonal antibody (Example 1); assay: inhibition ELISA, competitor plate-bound DAEFRH-C-BSA; inhibitory capacity
[7] = target: monoclonal antibody MV-001; assay: inhibition ELISA, competitor coated original epitope p4371; code 2 = strong inhibition (as original epitope)
[8] = target: monoclonal antibody MV-001; assay: ELISA on peptide-BSA; code 3 = strong binding, OD halfmax 1:>20000
[9] = target: monoclonal antibody MV-003; assay: ELISA on peptide-BSA; code 1 = weak binding, OD halfmax 1:<16000
[10] = target: monoclonal antibody MV-004; assay: inhibition ELISA, competitor coated original epitope p4372; code 1 = weaker than original epitope
[11] = target: monoclonal antibody MV-004; assay: ELISA on peptide-BSA; code 1 = weak binding, OD halfmax 1:<24000
[12] = target: monoclonal antibody MV-004; assay: inhibition ELISA, competitor coated original epitope p4372; code 2 = strong inhibition (as original epitope)
[13] = target: monoclonal antibody MV-004; assay: ELISA on peptide-BSA; code 3 = strong binding, OD halfmax 1:>96000
[14] = target: monoclonal antibody MV-003; assay: ELISA on peptide-BSA; code 3 = strong binding, OD halfmax 1:>60000

Binding Capacity [2]: 3 (strong binding :>60000)
Molecule: IRWDQPC [p4756]
Inhibition Capacity [1]: 1 (Weaker than original epitope (OD of 10 ug peptide below 12 times of original peptide))

Binding Capacity [2]: 3 (strong binding :>60000)
Molecule: IRWDTSLC [p4728]
Inhibition Capacity [1]: 2 (strong inhibition (as original epitope; OD of 10 ug peptide below 5 times of original peptide))

Binding Capacity [2]: 1 (weak binding :<16000)
Molecule: IRYDAPLC [p4397]
Inhibition Capacity [1]: 1 (Weaker than original epitope (OD of 10 ug peptide below 12 times of original peptide)) | Detection of Aβ/truncated/modified forms [3]: +

Binding Capacity [2]: 1 (weak binding :<16000)
Molecule: VRWDVYPC [p4396]
Detection of Aβ/truncated/modified forms [3]: +

Binding Capacity [2]: 1 (weak binding :<16000)
Molecule: IRYDMAGC [p4399]
Detection of Aβ/truncated/modified forms [3]: +

Binding Capacity [2]: 1 (weak binding :<16000)
Molecule: IRWDGC [p4792]
Inhibition Capacity [1]: 1 (Weaker than original epitope (OD of 10 ug peptide below 12 times of original peptide))

Binding Capacity [2]: 2 (medium binding :16-60000)
Molecule: IRWDGGC [p4793]
Inhibition Capacity [1]: 1 (Weaker than original epitope (OD of 10 ug peptide below 12 times of original peptide))

OD at 10 ug peptide relative to OD of original peptide (inhibition ELISA) [4]: 5 to 12 fold
Molecule: IRWDTPC [p4395]

IC50 [5]: > 0.5 µg/mL | IC50 [6]: > 0.5 µg/mL
Molecule: YAEFRGC [Peptide 3005]

OD at 10 ug peptide relative to OD of original peptide (inhibition ELISA) [7]: < 2 fold | OD halfmax 1:X (dilution factor of the parental antibody at half-maximal OD) (dilutionfactor(1:x)) [8]: > 20000
Molecule: CSEFKH [p4800]

dilution factor of the parental antibody at OD halfmax (1:X) (dilutionfactor(1:x)) [9]: < 16000 | OD at 10 ug peptide relative to OD of original peptide (inhibition ELISA) [4]: 5 to 12 fold
Molecule: IRYDAPLC [p4397]

OD at 10 ug peptide as multiple of OD with original peptide [10]: 2 to 5 fold | OD halfmax 1:X (dilution factor of the parental antibody at half-maximal OD) (dilutionfactor(1:x)) [11]: < 24000
Molecule: ELWHRAC [p4786]

OD at 10 ug peptide as multiple of OD with original peptide [10]: 2 to 5 fold | OD halfmax 1:X (dilution factor of the parental antibody at half-maximal OD) (dilutionfactor(1:x)) [11]: < 24000
Molecule: EVWHRHC [p4789]

OD halfmax 1:X (dilution factor of the parental antibody at half-maximal OD) (dilutionfactor(1:x)) [11]: < 24000 | OD at 10 ug peptide as multiple of OD with original peptide [12]: < 2 fold
Molecule: ERWHEKC [p4790]

OD at 10 ug peptide relative to OD of original peptide (inhibition ELISA) [7]: < 2 fold | OD halfmax 1:X (dilution factor of the parental antibody at half-maximal OD) (dilutionfactor(1:x)) [8]: > 20000
Molecule: TLHEFRHC [p4715]

IC50 [5]: > 0.5 µg/mL | IC50 [6]: > 0.5 µg/mL
Molecule: DWELRIC [Peptide 3002]

OD at 10 ug peptide as multiple of OD with original peptide [10]: 2 to 5 fold | OD halfmax 1:X (dilution factor of the parental antibody at half-maximal OD) (dilutionfactor(1:x)) [11]: < 24000
Molecule: EVWHRGC [p4788]

OD at 10 ug peptide relative to OD of original peptide (inhibition ELISA) [4]: 5 to 12 fold
Molecule: IRWDGGC [p4793]

OD halfmax 1:X (dilution factor of the parental antibody at half-maximal OD) (dilutionfactor(1:x)) [13]: > 96000 | OD at 10 ug peptide as multiple of OD with original peptide [12]: < 2 fold
Molecule: EVWHRLQC [p4419]

dilution factor of the parental antibody at OD halfmax (1:X) (dilutionfactor(1:x)) [9]: < 16000 | OD at 10 ug peptide relative to OD of original peptide (inhibition ELISA) [4]: 5 to 12 fold
Molecule: IRWDGC [p4792]

dilution factor of the parental antibody at OD halfmax (1:X) (dilutionfactor(1:x)) [9]: < 16000
Molecule: IRYDMAGC [p4399]

OD at 10 ug peptide as multiple of OD with original peptide [10]: 2 to 5 fold
Molecule: EVWHRHQC [p4417]

IC50 [5]: < 0.5 µg/mL | IC50 [6]: < 0.5 µg/mL
Molecule: DKELRIC [Peptide 3001]

OD at 10 ug peptide as multiple of OD with original peptide [10]: 2 to 5 fold
Molecule: ELWHRYPC [p4420]

IC50 [5]: < 0.5 µg/mL | IC50 [6]: < 0.5 µg/mL
Molecule: EAEFRGC [Peptide 3006]

OD at 10 ug peptide relative to OD of original peptide (inhibition ELISA) [7]: < 2 fold | OD halfmax 1:X (dilution factor of the parental antibody at half-maximal OD) (dilutionfactor(1:x)) [8]: > 20000
Molecule: CHEFRH [p4802]

OD halfmax 1:X (dilution factor of the parental antibody at half-maximal OD) (dilutionfactor(1:x)) [13]: > 96000 | OD at 10 ug peptide as multiple of OD with original peptide [12]: < 2 fold
Molecule: ERWHEKHC [p4418]

OD at 10 ug peptide relative to OD of original peptide (inhibition ELISA) [7]: < 2 fold | OD halfmax 1:X (dilution factor of the parental antibody at half-maximal OD) (dilutionfactor(1:x)) [8]: > 20000
Molecule: HEFRHC [p4803]

dilution factor of the parental antibody at OD halfmax (1:X) (dilutionfactor(1:x)) [9]: < 16000
Molecule: VRWDVYPC [p4396]

dilution factor of the parental antibody at OD halfmax (1:X) (dilutionfactor(1:x)) [14]: > 60000 | OD at 10 ug peptide relative to OD of original peptide (inhibition ELISA) [4]: 5 to 12 fold
Molecule: IRWDQPC [p4756]

OD at 10 ug peptide relative to OD of original peptide (inhibition ELISA) [7]: < 2 fold | OD halfmax 1:X (dilution factor of the parental antibody at half-maximal OD) (dilutionfactor(1:x)) [8]: > 20000
Molecule: TEFRHKAC [p4753]

OD at 10 ug peptide as multiple of OD with original peptide [12]: < 2 fold
Molecule: ELWHRAFC [p4665]

Reference: US20130287807A1, “COMPOUNDS FOR TREATING SYMPTOMS ASSOCIATED WITH PARKINSON'S DISEASE” (priority 2008, published 2013)
